For one assay, the target named is T1, Claudin-9 (CLDN9) (human, UniProt O95484 1-217).
T1 construct: whole, on cells; also called CLDN9-GFP; CLDN9-mGFP
T1 sequence (looked up): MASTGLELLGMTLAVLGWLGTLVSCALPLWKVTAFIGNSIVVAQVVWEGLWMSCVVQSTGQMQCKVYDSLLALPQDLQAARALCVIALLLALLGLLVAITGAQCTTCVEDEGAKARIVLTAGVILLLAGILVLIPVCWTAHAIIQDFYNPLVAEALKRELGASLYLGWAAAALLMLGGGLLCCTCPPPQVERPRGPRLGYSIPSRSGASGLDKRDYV
The assay can be described thus: FACS titration of labelled mAb on HEK293T CLDN9-mGFP cells. The procedure:
(§1) CLDN6 antibodies were tested from 0.32 nM to 1000 nM (serial dilution 1:5, 6 points) in a 50 μl volume with 150,000 cells system.
(§2) CLDN6-expressing cells were used in FACS assays to determine the CLDN6 antibody's ability to bind to CLDN6 on the surface of cells and to cross-react with other CLDN family members. HEK293 T cells engineered to express human CLDN6 fused to GFP, mouse CLDN6 fused to GFP, CLDN9-GFP, CLDN4-GFP, or CLDN3-GFP, or GFP alone (without CLDN6) were used as artificial models of CLDN6 expression.
(§3) For each type of cell tested and for each mAb, cells were detached from the surface of the culture flasks by EDTA (instead of trypsin) in order to protect the cell surface proteins. The detached cells were then incubated with Alexa Fluor®-labeled CLDN6 mAbs for 30 min in the dark on ice at a pre-determined concentration. […] After washing, the cells were read by a BD Accuri™ Flow Cytometer C6 to detect antibody-antigen protein binding in channel FL4H. Each antibody was tested at varied concentrations to establish a dose-fluorescence curve. […] Cross-reactivity data were obtained using a similar methodology, but with cells having a different expression profile for CLDN6, CLDN3, CLDN4 and CLDN9.

Assay [1] has as its target human Claudin-6 (CLDN6) (human) (UniProt P56747). The experiment in a line: FACS titration of labelled mAb on OVCA429 cells (endogenous CLDN6+).
For the next assay, the target named is T2, Claudin-4 (CLDN4) (human, UniProt O14493 1-209).
T2 construct: whole, on cells; also called CLDN4-GFP; CLDN4-mGFP
T2 sequence (looked up): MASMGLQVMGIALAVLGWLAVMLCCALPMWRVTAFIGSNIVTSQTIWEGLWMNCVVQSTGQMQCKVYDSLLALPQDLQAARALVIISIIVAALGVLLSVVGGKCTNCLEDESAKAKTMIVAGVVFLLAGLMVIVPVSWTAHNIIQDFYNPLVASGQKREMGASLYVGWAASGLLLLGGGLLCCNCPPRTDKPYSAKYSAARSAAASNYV
The assay can be described thus: FACS titration of labelled mAb on HEK293T CLDN4-mGFP cells. The procedure:
as §1, §2, §3

Assay [2] has as its target human Claudin-6 (CLDN6) (human) (UniProt P56747). The assay can be described thus: FACS titration of labelled mAb on HEK293T-CLDN6-mGFP cells.
The next assay has as its target T3, mouse Claudin-6 (CLDN6) (mouse, UniProt Q9Z262 1-219).
T3 construct: whole, on cells; GFP fusion on engineered HEK293T cells; also called Mouse CLDN6; murine CLDN6
T3 sequence (looked up): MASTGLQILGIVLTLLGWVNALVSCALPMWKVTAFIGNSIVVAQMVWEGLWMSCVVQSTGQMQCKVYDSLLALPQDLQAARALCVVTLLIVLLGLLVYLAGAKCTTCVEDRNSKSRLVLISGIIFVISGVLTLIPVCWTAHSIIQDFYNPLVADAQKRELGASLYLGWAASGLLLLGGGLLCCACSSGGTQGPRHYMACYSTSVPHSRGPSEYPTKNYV
The experiment in a line: FACS titration of labelled mAb on HEK293T mouse CLDN6-mGFP cells. The procedure: as §1, §2, §3

The target in assay [3] is CLDN3/4 (endogenous on LS513 or MCF7 cells). The experiment in a line: FACS titration of labelled mAb on MCF7 cells (endogenous CLDN3/4+).
Assay [4] shares this target. The experiment in a line: FACS titration of labelled mAb on LS513 cells (endogenous CLDN3/4+).
Assay [5] addresses human Claudin-6 (CLDN6) (human) (UniProt P56747). The experiment in a line: FACS titration of labelled mAb on ARK2 cells (endogenous CLDN6+).
For assay [6] the target is unchanged. The experiment in a line: KinExA, HEK293T CLDN6-mGFP A11 cells detached by Versene, equilibrium curves 500pM, 10nM; printed 95% CI 3.41nM - 14.99nM.
Assay [7] has the same target. The experiment in a line: flow cytometry, UMUC4 cells (positive cell line); 2nd Ab only 1,114.73.
Assay [8] shares this target. The assay can be described thus: KinExA, HEK293T CLDN6-mGFP A11 cells detached by Versene, equilibrium curves 500pM, 10nM; printed 95% CI 1.05nM - 3.38nM.
For assay [9] the target is unchanged. The experiment in a line: KinExA, HEK293T CLDN6-mGFP A11 cells detached by Versene, equilibrium curves 500pM, 10nM; printed 95% CI 1.49nM - 17.05nM.
Assay [10] shares this target. The assay can be described thus: KinExA, HEK293T CLDN6-mGFP A11 cells detached by Versene, equilibrium curves 500pM, 10nM; printed 95% CI 1.07nM - 7.74nM.
Assay [11] shares this target. The assay can be described thus: KinExA, HEK293T CLDN6-mGFP A11 cells detached by Versene, equilibrium curves 500pM, 10nM; printed 95% CI 2.10nM - 5.42nM.
Assay [12] has the same target. The experiment in a line: flow cytometry, HEK293T CLDN6-mGFP A11 cells (positive artificial OE cell line); 2nd Ab only 1,242.89.
Assay [13] has the same target. The assay can be described thus: KinExA, HEK293T CLDN6-mGFP A11 cells detached by Versene, equilibrium curves 500pM, 10nM; printed 95% CI 0.56nM - 1.66nM.
For assay [14] the target is unchanged. The assay can be described thus: KinExA, HEK293T CLDN6-mGFP A11 cells detached by Versene, equilibrium curves 500pM, 10nM; printed 95% CI 1.46nM - 6.47nM.

Bounds are passed on as bounds.

B1: AB8 (antibody, V domains shown)
VH: QVQLQQSGAELARPGASVKMSCKASGYTFTTYTMHWLKQRPGQGLEWIGYINPRSGYSNYNQKFKDKATLTADKSSNTAYMQLNTLTSEDSKVYYCSRGELGGFAYWGQGTLVTVSA
VL: DVVMTQTPLSLPVSLGDQASISCRSSQSLVHSDGNTYLYWYLQKPGQSPKLLIYKVSNRFSGVPDRFSGSGSGTDFTLKISRVEAEDLGVYFCSQSTHVPYTFGGGTKLEIK
notes: full-length IgG (ExpiCHO)
Take B1: the EC50 in the assay with Claudin-9 (CLDN9) is 2.77 µM; in assay [1] it was 1.09 µM; in the assay with Claudin-4 (CLDN4), at least 5 µM; in assay [2], 1.92 µM; with mouse Claudin-6 (CLDN6), at least 5 µM; in assay [3], 1.06 µM. The results for the EC50 in [4] and in assay [5] were 1.13 µM and 1.14 µM, respectively.

B2: CLDN6 ADC: AB3-7 conjugated to MC-VC-PAB-MMAE (conventional) (antibody, V domains shown)
VH: EVQLLESGGGLVQPGGSMRLSCAASGFTFSNYWMNWVRQAPGKGLEWVAQIRLKSDNYATHYADSVKGRFTISRDDSKNTVYLQMNSLRAEDTGVYYCNDGPPSGSWGQGTLLTVSS
VL: DIQMTQSPSSLSASVGDRVTITCRISENIYSYLAWYQQKPGKAPKLLVYNAKILVEGVPSRFSGSGSGTDFTLTISSLQPEDFGTYYCQHHYTVPWTFGQGTKLEIK
modifications: antibody conjugated to MC-VC-PAB-MMAE, heterogeneous drug load; attachment residues not stated
B2 showed a dissociation constant Kd in [6] of 0.00668 µM. Besides, in [7], the flow cytometry signal at 1µg Ab/Sample stood at 28800.

B3: CLDN6 ADC: AB3-7 conjugated to CL2A-SN38 (conventional) (antibody, V domains shown)
VH: B2 VH
VL: B2 VL
modifications: antibody conjugated to CL2A-SN38, heterogeneous drug load; attachment residues not stated
As for B3, in assay [8], the Kd is 0.00191 µM. In assay [7], this molecule had a flow cytometry signal at 0.1µg Ab/Sample of 9990 and a flow cytometry signal at 1µg Ab/Sample of 33800.

B4: CLDN6 ADC: AB3-7 conjugated to MC-VC-PAB-MMAE (D4 technology) (antibody, V domains shown)
VH: B2 VH
VL: B2 VL
modifications: antibody conjugated to MC-VC-PAB-MMAE, mostly 4 drugs per antibody; attachment residues not stated
In assay [7], B4 registered a flow cytometry signal at 0.1µg Ab/Sample of 9450 and a flow cytometry signal at 1µg Ab/Sample of 26900. The molecule also showed a Kd in [9] of 0.00534 µM.

B5: CLDN6 ADC: AB3-7 conjugated to CL2A-SN38 (D4 technology) (antibody, V domains shown)
VH: B2 VH
VL: B2 VL
modifications: antibody conjugated to CL2A-SN38, mostly 4 drugs per antibody; attachment residues not stated
Molecule B5 had a Kd in assay [10] of 0.00287 µM. In assay [7], this molecule showed a flow cytometry signal at 0.1µg Ab/Sample of 9140 and a flow cytometry signal at 1µg Ab/Sample of 34600.

B6: CLDN6 ADC: AB3-7 conjugated to MC-VC-PAB-DXD (antibody, V domains shown)
VH: B2 VH
VL: B2 VL
modifications: antibody conjugated to MC-VC-PAB-DXD; attachment residues not stated
Take B6: in assay [11], the Kd turned out to be 0.00342 µM. In assay [12], the flow cytometry signal at 0.1µg Ab/Sample was found to be 110000. Further, in assay [7], the flow cytometry signal at 0.1µg Ab/Sample is 10800 and the flow cytometry signal at 1µg Ab/Sample was 32600.

B7: CLDN6 ADC: AB3-7 conjugated to MC-GGFG-MMAE (D4 technology) (antibody, V domains shown)
VH: B2 VH
VL: B2 VL
modifications: antibody conjugated to MC-GGFG-MMAE, mostly 4 drugs per antibody; attachment residues not stated
On to B7, for which the Kd in assay [13] came out at 0.00101 µM. In [7], this molecule had a flow cytometry signal at 0.1µg Ab/Sample of 8790 and a flow cytometry signal at 1µg Ab/Sample of 31600.

B8: CLDN6 ADC: AB3-7 conjugated to MC-GGFG-DXD (antibody, V domains shown)
VH: B2 VH
VL: B2 VL
modifications: antibody conjugated to MC-GGFG-DXD; attachment residues not stated
For the molecule B8, the flow cytometry signal at 0.1µg Ab/Sample in assay [12] is 121000. In assay [7], this molecule came in with a flow cytometry signal at 0.1µg Ab/Sample of 10500 and a flow cytometry signal at 1µg Ab/Sample of 32800. Moreover, the Kd in assay [14] stood at 0.00301 µM.

B9: AB7 (antibody, V domains shown)
VH: EVQLQQSGPELVKPGASMKISCKASGYSFTGYTMNWVKQSHGKNLEWIGLINPYNGGTNYNQKFKGKATLTVDKSSSTAYMELLSLTSEDSAVYYCARGVYDYDGFTYWGQGTLVTVSA
VL: QIVLTQSPAIMSASLGDRVTMTCTASSSVSSSYLHWYQQKPGSSPKLWIYSTSNLASGVPARFSGSGSGTSYSLTISSMEAEDAATYYCHQYHRSPPTFGSGTKLEIK
notes: full-length IgG (ExpiCHO)
As for B9, the EC50 is 1.94 µM with Claudin-9 (CLDN9); 0.531 µM in assay [1]; 2.09 µM with Claudin-4 (CLDN4); 0.579 µM in assay [2]; 1.55 µM with mouse Claudin-6 (CLDN6); 0.979 µM in assay [3]. For the same molecule, the values for the EC50 in [4] and in [5] were 0.635 µM and 0.353 µM, respectively.

Source of the values: patent US20230049752A1 (University of California, published 2023).
